Results from the supplement of paper PMC7125110.
± gives the standard error. For part of these data: Variants at the floor of the assay were thinned out.

B1: glmS ribozyme (parent)
chain: AUAAAAGCGCCAGAACUACAGAAAUGUAGUUGACGAGGAGGAGGUUUAUCGAAUUUUCGGCGGAUGCCUCCAAA

Assays:
Settings in all cases: with glucosamine-6-phosphate
[1] = variants of: B1; experiment: kcat; higher = faster cleavage; RNA array
In short: (§1)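 Barcoded ribozyme variants, transcribed in situ by E. coli RNA polymerase on sequenced MiSeq chips, were followed via a hybridised Cy3 probe at 37 °C. Glucosamine-6-phosphate ranged from 40 μM to 10 mM in HEPES/KCl/Mg(OAc)2 buffer. kobs came from decay fits to per-tile medians, and kcat and KM from weighted Michaelis–Menten fits.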

[2] = variants of: B1; experiment: KM; higher = weaker cofactor use; RNA array
In short: as §1

[3] = variants of: B1; experiment: self-cleavage kobs at 160 uM GlcN6P; higher = faster cleavage; RNA array
In short: as §1

[4] = variants of: B1; experiment: self-cleavage kobs at 640 uM GlcN6P; higher = faster cleavage; RNA array
In short: as §1

[5] = variants of: B1; experiment: self-cleavage kobs at 2500 uM GlcN6P; higher = faster cleavage; RNA array
In short: as §1

[6] = variants of: B1; experiment: self-cleavage kobs at 10000 uM GlcN6P; higher = faster cleavage; RNA array
In short: as §1

[7] = variants of: B1; experiment: self-cleavage kobs at 40 uM GlcN6P; higher = faster cleavage; RNA array
In short: as §1

| Variant | kcat [1] | KM [2] | self-cleavage kobs at 160 uM GlcN6P [3] | self-cleavage kobs at 640 uM GlcN6P [4] | self-cleavage kobs at 2500 uM GlcN6P [5] | self-cleavage kobs at 10000 uM GlcN6P [6] | self-cleavage kobs at 40 uM GlcN6P [7] |
| --- | --- | --- | --- | --- | --- | --- | --- |
| U65C C70U | 0.000844 ± 0.0001 s⁻¹ | 2930 ± 550 µM | 3.71e-05 ± 1e-05 s⁻¹ | 0.000169 ± 2.7e-05 s⁻¹ | 0.000379 ± 7.6e-05 s⁻¹ | 0.000647 ± 0.0001 s⁻¹ |  |
| A14U U65G | 0.00172 ± 0.00014 s⁻¹ | 2120 ± 250 µM | 0.000118 ± 1.7e-05 s⁻¹ | 0.000431 ± 4.8e-05 s⁻¹ | 0.000875 ± 0.00012 s⁻¹ | 0.00144 ± 0.00018 s⁻¹ | 2.77e-05 ± 8e-06 s⁻¹ |
| U47A U56C | 0.00368 ± 0.00095 s⁻¹ | 3940 ± 1500 µM | 0.000111 ± 2.1e-05 s⁻¹ | 0.000703 ± 8.8e-05 s⁻¹ | 0.00144 ± 0.00021 s⁻¹ | 0.00257 ± 0.00031 s⁻¹ |  |
| A36U G37A | 1.19e-05 ± 3e-06 s⁻¹ |  |  |  |  |  |  |
| A6U A52U | < 1e-05 s⁻¹ |  | < 1e-05 s⁻¹ |  |  | < 1e-05 s⁻¹ |  |
| G35A G38C | < 1e-05 s⁻¹ |  |  | < 1e-05 s⁻¹ |  |  |  |
| A12C C71U | 0.0215 ± 0.0089 s⁻¹ |  | 0.00112 ± 0.00015 s⁻¹ | 0.00448 ± 0.00062 s⁻¹ | 0.0206 ± 0.0035 s⁻¹ | 0.0164 ± 0.0023 s⁻¹ | 0.000587 ± 7e-05 s⁻¹ |
| C61A G66U | < 1e-05 s⁻¹ |  |  |  |  |  |  |
| A42U U56A | 0.000109 ± 7.4e-06 s⁻¹ | 3230 ± 710 µM |  |  | 4.97e-05 ± 1.4e-05 s⁻¹ | 8.21e-05 ± 9.2e-06 s⁻¹ |  |
| G32A A52G | 0.000151 ± 1.3e-05 s⁻¹ | 1760 ± 480 µM |  | 5.19e-05 ± 2e-05 s⁻¹ | 8.18e-05 ± 1.4e-05 s⁻¹ | 0.000131 ± 1.5e-05 s⁻¹ |  |
| G29A U31A | 0.00193 ± 0.00042 s⁻¹ | 1110 ± 410 µM | 0.000184 ± 7.5e-05 s⁻¹ | 0.00109 ± 0.00022 s⁻¹ | 0.00129 ± 0.00029 s⁻¹ | 0.00165 ± 0.00037 s⁻¹ | 6.33e-05 ± 1.9e-05 s⁻¹ |
| G32C A48U | < 1e-05 s⁻¹ |  |  |  |  |  | < 1e-05 s⁻¹ |
| C67A C68A | 3.56e-05 ± 6.8e-06 s⁻¹ |  |  | 5.08e-05 ± 1.2e-05 s⁻¹ | 2.46e-05 ± 1e-05 s⁻¹ | 3.61e-05 ± 9.6e-06 s⁻¹ |  |
| A14G G29U | 0.00845 ± 0.0039 s⁻¹ |  | 0.00105 ± 0.00022 s⁻¹ | 0.00497 ± 0.00096 s⁻¹ | 0.00501 ± 0.0013 s⁻¹ | 0.0131 ± 0.0033 s⁻¹ | 0.000647 ± 0.00012 s⁻¹ |
| C16A U45C | 9.45e-05 ± 2.3e-05 s⁻¹ |  |  |  | 8.36e-05 ± 2.3e-05 s⁻¹ | 7.72e-05 ± 1.4e-05 s⁻¹ |  |
| G37A U49G | 7.59e-05 ± 1.4e-05 s⁻¹ |  |  |  | 4.94e-05 ± 1.8e-05 s⁻¹ | 6.04e-05 ± 1.3e-05 s⁻¹ |  |
| A6U A14U | 4.98e-05 ± 1.9e-06 s⁻¹ | 310 ± 92 µM |  | 3.6e-05 ± 1.2e-05 s⁻¹ | 4.51e-05 ± 1.4e-05 s⁻¹ | 4.79e-05 ± 6.3e-06 s⁻¹ |  |
| A15U A52U C68A | 2.12e-05 ± 5.2e-06 s⁻¹ |  |  |  |  | < 1e-05 s⁻¹ |  |

| Variant | kcat [1] | KM [2] | self-cleavage kobs at 160 uM GlcN6P [3] | self-cleavage kobs at 640 uM GlcN6P [4] | self-cleavage kobs at 2500 uM GlcN6P [5] | self-cleavage kobs at 10000 uM GlcN6P [6] | self-cleavage kobs at 40 uM GlcN6P [7] |
| --- | --- | --- | --- | --- | --- | --- | --- |
| U49C C67G | < 1e-05 s⁻¹ |  | < 1e-05 s⁻¹ |  |  | < 1e-05 s⁻¹ | < 1e-05 s⁻¹ |
| U57A C68U | 0.00017 ± 1.9e-05 s⁻¹ | 2500 ± 560 µM |  | 3.78e-05 ± 8.1e-06 s⁻¹ | 7.94e-05 ± 1e-05 s⁻¹ | 0.000143 ± 2.2e-05 s⁻¹ |  |
| G40U U46G | 0.00101 ± 0.00013 s⁻¹ | 1860 ± 390 µM | 7.71e-05 ± 1.5e-05 s⁻¹ | 0.000242 ± 3.9e-05 s⁻¹ | 0.000669 ± 8.8e-05 s⁻¹ | 0.000785 ± 0.00012 s⁻¹ | 2.93e-05 ± 1.4e-05 s⁻¹ |
| A14C G29C | 0.00095 ± 0.00038 s⁻¹ |  |  | 6.24e-05 ± 1.5e-05 s⁻¹ | 0.000139 ± 2.5e-05 s⁻¹ | 0.000438 ± 6.2e-05 s⁻¹ |  |
| A12C A53G | 0.0568 ± 0.027 s⁻¹ |  | 0.00162 ± 0.00033 s⁻¹ | 0.00569 ± 0.00072 s⁻¹ | 0.0149 ± 0.0025 s⁻¹ | 0.0471 ± 0.0076 s⁻¹ | 0.000585 ± 7.2e-05 s⁻¹ |
| A23C C70A | 0.000172 ± 3.1e-05 s⁻¹ | 139 ± 68 µM |  |  | 0.000302 ± 0.0001 s⁻¹ | 0.000156 ± 3.2e-05 s⁻¹ | 3.76e-05 ± 1.2e-05 s⁻¹ |
| U56G C61A | < 1e-05 s⁻¹ |  |  |  |  |  |  |
| U56G G66A | 0.0089 ± 0.0034 s⁻¹ |  | 0.00049 ± 0.00011 s⁻¹ | 0.00136 ± 0.00037 s⁻¹ | 0.00405 ± 0.00078 s⁻¹ | 0.00875 ± 0.0018 s⁻¹ | 0.00021 ± 3.4e-05 s⁻¹ |
| A6G A14C U54G | 3.49e-05 ± 4.1e-06 s⁻¹ |  |  |  | 3.32e-05 ± 1.2e-05 s⁻¹ | 3.47e-05 ± 1.5e-05 s⁻¹ |  |
| A52G G60U | < 1e-05 s⁻¹ |  | < 1e-05 s⁻¹ | < 1e-05 s⁻¹ |  |  |  |
| G41C U47A | 0.000354 ± 1.6e-05 s⁻¹ | 4510 ± 420 µM |  | 4.21e-05 ± 1.2e-05 s⁻¹ | 0.000134 ± 2.8e-05 s⁻¹ | 0.000243 ± 2.7e-05 s⁻¹ |  |
| A33U A53G | 3.38e-05 ± 6.8e-06 s⁻¹ |  |  |  | 3.39e-05 ± 1e-05 s⁻¹ | 2.98e-05 ± 6.7e-06 s⁻¹ | < 1e-05 s⁻¹ |
| A48U C71G | 4.92e-05 ± 1e-05 s⁻¹ |  |  | 4.04e-05 ± 7.5e-06 s⁻¹ | 6.5e-05 ± 9.8e-06 s⁻¹ | 3.69e-05 ± 8e-06 s⁻¹ |  |
| A36G C68G | 1.27e-05 ± 2.3e-06 s⁻¹ |  |  |  |  |  |  |
| U30A C70A | 6.65e-05 ± 2.4e-05 s⁻¹ |  |  |  | 7.75e-05 ± 1.6e-05 s⁻¹ | 5.12e-05 ± 1.3e-05 s⁻¹ |  |
| G29A G38C | < 1e-05 s⁻¹ |  |  |  |  | < 1e-05 s⁻¹ |  |
| G59U A64G | 6.46e-05 ± 1.1e-05 s⁻¹ |  |  |  | 7.94e-05 ± 2.1e-05 s⁻¹ | 5.92e-05 ± 9.3e-06 s⁻¹ | < 1e-05 s⁻¹ |
| A33G G59U C68A C71A | 2.2e-05 ± 6.5e-06 s⁻¹ |  |  |  |  |  |  |
